Results as given in PMC5605508.

Assays:
[1] = molecular target: SSBΔC8 (Escherichia coli) (UniProt P0AGE0); assay: EMSA; details: Buffer 1: 25 mM Tris-HCl, 10 mM Mg acetate, 3 mM K glutamate, pH 7.5, room temperature (TPM: 2 uM RecA, 2 mM ATP, 1 mM DTT, 1 mg/mL BSA); buffer 2: 10 mM Tris …
wtSSB (Escherichia coli) [2] = molecular target: wtSSB (Escherichia coli) (UniProt P0AGE0); assay: EMSA; details: Buffer 1: 25 mM Tris-HCl, 10 mM Mg acetate, 3 mM K glutamate, pH 7.5, room temperature (TPM: 2 uM RecA, 2 mM ATP, 1 mM DTT, 1 mg/mL BSA); buffer 2: 10 mM Tris …
[3] = molecular target: SSBΔC8 (Escherichia coli) (UniProt P0AGE0); assay: SPR; details: 10 mM Mg acetate, 3 mM K glutamate, pH 7.5, room temperature (TPM: 2 uM RecA, 2 mM ATP, 1 mM DTT, 1 mg/mL BSA)
wtSSB (Escherichia coli) [4] = molecular target: wtSSB (Escherichia coli) (UniProt P0AGE0); assay: SPR; details: 10 mM Mg acetate, 3 mM K glutamate, pH 7.5, room temperature (TPM: 2 uM RecA, 2 mM ATP, 1 mM DTT, 1 mg/mL BSA)
[5] = buffer 1, 0.005% Tween-20, Buffer 1: 25 mM Tris-HCl, buffer 2: 10 mM Tris …
[6] = buffer 2 (10 mM Tris, 0.1 mM Na3EDTA, pH 8.1), 0.005% Tween-20, Buffer 1: 25 mM Tris-HCl

55 nt ssDNA overhang (EMSA)
Kd [1]: 13.9 nM | Kd (wtSSB (Escherichia coli) [2]): 4.04 nM

55 nt ssDNA overhang (SPR)
Kd [3, 5]: 4.7 nM | Kd [3, 6]: 89.1 nM | Kd (wtSSB (Escherichia coli) [4]; [5]): 24 nM | Kd (wtSSB (Escherichia coli) [4]; [6]): 145 nM
